Where two headings read alike, the source gives them in different places. Starred links: 1 amine or outer side, 2 acyl side, 3 side chain; linkers in the order of their positions; H or OH if unused. Positions of bridges follow the written chain, without caps; N, C: chain ends. Non-standard residues stand in square brackets, D forms with d. Groups on a side chain read outwards from the residue. No end group written: not given here. *: point of attachment. γGlu = O=C(O)[C@H](CCC(=O)[*:2])N[*:1]; Palmitoyl = CCCCCCCCCCCCCCCC(=O)*; Myristoyl = CCCCCCCCCCCCCC(=O)*; Aib = CC(C)(N)C(=O)O
Columns and labels:
Experiment in all cases: cell-based or functional assay
glucagon receptor [1] = target: T1, glucagon receptor (UniProt P47871 26-477, limits assumed)
T1 sequence (P47871 26-477 limits assumed): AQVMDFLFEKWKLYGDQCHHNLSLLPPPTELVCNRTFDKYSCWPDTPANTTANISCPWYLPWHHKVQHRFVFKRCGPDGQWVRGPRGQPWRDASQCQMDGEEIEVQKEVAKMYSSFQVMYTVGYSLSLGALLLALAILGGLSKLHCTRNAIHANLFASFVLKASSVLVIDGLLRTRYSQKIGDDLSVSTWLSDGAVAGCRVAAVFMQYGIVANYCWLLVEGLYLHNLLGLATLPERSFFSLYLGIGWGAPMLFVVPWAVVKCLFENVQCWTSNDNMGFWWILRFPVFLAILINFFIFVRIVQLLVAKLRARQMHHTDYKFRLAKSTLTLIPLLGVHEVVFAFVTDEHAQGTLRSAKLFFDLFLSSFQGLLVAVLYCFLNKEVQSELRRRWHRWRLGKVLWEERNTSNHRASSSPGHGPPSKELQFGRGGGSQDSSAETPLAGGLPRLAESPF

glucagon receptor [2] = target: T1, glucagon receptor; remark: listed apart in the source
glucagon receptor [3] = target: T1, glucagon receptor; remark: listed apart in the source
glucagon receptor [4] = target: T1, glucagon receptor; remark: listed apart in the source
GLP-1 receptor [5] = target: T2, GLP-1 receptor (UniProt P43220 24-463, limits assumed)
GIP receptor [6] = target: T3, GIP receptor (UniProt P48546 22-466)
T3 sequence (looked up): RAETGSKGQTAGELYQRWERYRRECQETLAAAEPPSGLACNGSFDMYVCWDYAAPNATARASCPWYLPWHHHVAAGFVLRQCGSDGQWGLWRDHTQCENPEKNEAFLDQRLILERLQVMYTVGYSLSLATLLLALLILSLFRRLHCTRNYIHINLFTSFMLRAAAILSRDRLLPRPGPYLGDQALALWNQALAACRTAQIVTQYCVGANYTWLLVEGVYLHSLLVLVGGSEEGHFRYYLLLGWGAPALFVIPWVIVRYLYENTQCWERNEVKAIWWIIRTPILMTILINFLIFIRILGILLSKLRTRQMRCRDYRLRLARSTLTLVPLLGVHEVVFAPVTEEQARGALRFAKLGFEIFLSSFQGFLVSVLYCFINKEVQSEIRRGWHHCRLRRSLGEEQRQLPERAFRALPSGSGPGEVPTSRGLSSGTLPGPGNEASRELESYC

glucagon receptor [7] = target: T1, glucagon receptor; remark: listed apart in the source
GLP-1 receptor [8] = target: T2, GLP-1 receptor; remark: listed apart in the source
GIP receptor [9] = target: T3, GIP receptor; remark: listed apart in the source
GLP-1 receptor [10] = target: T2, GLP-1 receptor; remark: listed apart in the source
GIP receptor [11] = target: T3, GIP receptor; remark: listed apart in the source
glucagon receptor [12] = target: T1, glucagon receptor; remark: listed apart in the source
GLP-1 receptor [13] = target: T2, GLP-1 receptor; remark: listed apart in the source

## HSQGTFTSDYSKYLDSRRAQDFVQWLMNTGPSSGAPPPS (C-terminal amide) [Glucagon-Cex]
Glucagon receptor [1]
  cAMP induction EC50: 0.25 nM

## Y[Aib]EGTFTSDYSIYLDKQAA[Aib]EFVNWLLAGGPSSGAPPPSK(Palmitoyl) [mt-261]
Glucagon receptor [2]
  % Relative activity: 13.4%
Glucagon receptor [3]
  % Relative activity: 31.6%

B1: Peptide 901 (peptide)
peptide: H[Aib]QGTFTSDK([γGlu-γGlu-Palmitoyl])SKYLD[Aib]RRAQDFVQWLMNTGPSSGAPPPS-NH2
modifications: N-terminus assumed
SMILES: CCCCCCCCCCCCCCCC(=O)N[C@@H](CCC(=O)N[C@@H](CCC(=O)NCCCC[C@H](NC(=O)[C@H](CC(=O)O)NC(=O)[C@H](CO)NC(=O)[C@@H](NC(=O)[C@H](Cc1ccccc1)NC(=O)[C@@H](NC(=O)CNC(=O)[C@H](CCC(N)=O)NC(=O)C(C)(C)NC(=O)[C@@H](N)Cc1c[nH]cn1)[C@@H](C)O)[C@@H](C)O)C(=O)N[C@@H](CO)C(=O)N[C@@H](CCCCN)C(=O)N[C@@H](Cc1ccc(O)cc1)C(=O)N[C@@H](CC(C)C)C(=O)N[C@@H](CC(=O)O)C(=O)NC(C)(C)C(=O)N[C@@H](CCCNC(=N)N)C(=O)N[C@@H](CCCNC(=N)N)C(=O)N[C@@H](C)C(=O)N[C@@H](CCC(N)=O)C(=O)N[C@@H](CC(=O)O)C(=O)N[C@@H](Cc1ccccc1)C(=O)N[C@H](C(=O)N[C@@H](CCC(N)=O)C(=O)N[C@@H](Cc1c[nH]c2ccccc12)C(=O)N[C@@H](CC(C)C)C(=O)N[C@@H](CCSC)C(=O)N[C@@H](CC(N)=O)C(=O)N[C@H](C(=O)NCC(=O)N1CCC[C@H]1C(=O)N[C@@H](CO)C(=O)N[C@@H](CO)C(=O)NCC(=O)N[C@@H](C)C(=O)N1CCC[C@H]1C(=O)N1CCC[C@H]1C(=O)N1CCC[C@H]1C(=O)N[C@@H](CO)C(N)=O)[C@@H](C)O)C(C)C)C(=O)O)C(=O)O
Glucagon receptor [4]
  % Relative activity: 560%
GLP-1 receptor [5]
  % Relative activity: 460%
GIP receptor [6]
  % Relative activity: 8.65%

B2: mt-347 (peptide)
peptide: H[Aib]QGTFTSDYSKYLD[Aib]QAAKEFICWLMNGGPSSGAPPPSK(Myristoyl)-NH2
modifications: N-terminus assumed
SMILES: CCCCCCCCCCCCCC(=O)NCCCC[C@H](NC(=O)[C@H](CO)NC(=O)[C@@H]1CCCN1C(=O)[C@@H]1CCCN1C(=O)[C@@H]1CCCN1C(=O)[C@H](C)NC(=O)CNC(=O)[C@H](CO)NC(=O)[C@H](CO)NC(=O)[C@@H]1CCCN1C(=O)CNC(=O)CNC(=O)[C@H](CC(N)=O)NC(=O)[C@H](CCSC)NC(=O)[C@H](CC(C)C)NC(=O)[C@H](Cc1c[nH]c2ccccc12)NC(=O)[C@H](CS)NC(=O)[C@@H](NC(=O)[C@H](Cc1ccccc1)NC(=O)[C@H](CCC(=O)O)NC(=O)[C@H](CCCCN)NC(=O)[C@H](C)NC(=O)[C@H](C)NC(=O)[C@H](CCC(N)=O)NC(=O)C(C)(C)NC(=O)[C@H](CC(=O)O)NC(=O)[C@H](CC(C)C)NC(=O)[C@H](Cc1ccc(O)cc1)NC(=O)[C@H](CCCCN)NC(=O)[C@H](CO)NC(=O)[C@H](Cc1ccc(O)cc1)NC(=O)[C@H](CC(=O)O)NC(=O)[C@H](CO)NC(=O)[C@@H](NC(=O)[C@H](Cc1ccccc1)NC(=O)[C@@H](NC(=O)CNC(=O)[C@H](CCC(N)=O)NC(=O)C(C)(C)NC(=O)[C@@H](N)Cc1c[nH]cn1)[C@@H](C)O)[C@@H](C)O)[C@@H](C)CC)C(N)=O
Glucagon receptor [7]
  % Relative activity: 111%
  EC50: 0.0317 nM
GLP-1 receptor [8]
  % Relative activity: 67.1%
  EC50: 8.2 pM
GIP receptor [9]
  % Relative activity: 0.7%
  EC50: 0.383 nM
Glucagon receptor [2]
  % Relative activity: 111%
GLP-1 receptor [10]
  % Relative activity: 67%
GIP receptor [11]
  % Relative activity: 0.7%

B3: mt-348 (peptide)
peptide: H[Aib]QGTFTSDYSKYLD[Aib]QAAKEFICWLMNGGPSSGAPPPSK-NH2
modifications: N-terminus assumed
SMILES: CC[C@H](C)[C@H](NC(=O)[C@H](Cc1ccccc1)NC(=O)[C@H](CCC(=O)O)NC(=O)[C@H](CCCCN)NC(=O)[C@H](C)NC(=O)[C@H](C)NC(=O)[C@H](CCC(N)=O)NC(=O)C(C)(C)NC(=O)[C@H](CC(=O)O)NC(=O)[C@H](CC(C)C)NC(=O)[C@H](Cc1ccc(O)cc1)NC(=O)[C@H](CCCCN)NC(=O)[C@H](CO)NC(=O)[C@H](Cc1ccc(O)cc1)NC(=O)[C@H](CC(=O)O)NC(=O)[C@H](CO)NC(=O)[C@@H](NC(=O)[C@H](Cc1ccccc1)NC(=O)[C@@H](NC(=O)CNC(=O)[C@H](CCC(N)=O)NC(=O)C(C)(C)NC(=O)[C@@H](N)Cc1c[nH]cn1)[C@@H](C)O)[C@@H](C)O)C(=O)N[C@@H](CS)C(=O)N[C@@H](Cc1c[nH]c2ccccc12)C(=O)N[C@@H](CC(C)C)C(=O)N[C@@H](CCSC)C(=O)N[C@@H](CC(N)=O)C(=O)NCC(=O)NCC(=O)N1CCC[C@H]1C(=O)N[C@@H](CO)C(=O)N[C@@H](CO)C(=O)NCC(=O)N[C@@H](C)C(=O)N1CCC[C@H]1C(=O)N1CCC[C@H]1C(=O)N1CCC[C@H]1C(=O)N[C@@H](CO)C(=O)N[C@@H](CCCCN)C(N)=O
Glucagon receptor [7]
  % Relative activity: 8.16%
  EC50: 0.433 nM
GLP-1 receptor [8]
  % Relative activity: 149%
  EC50: 3.7 pM
GIP receptor [9]
  % Relative activity: 0.15%
  EC50: 1.76 nM
Glucagon receptor [2]
  % Relative activity: 8.2%
GLP-1 receptor [10]
  % Relative activity: 149%
GIP receptor [11]
  % Relative activity: 0.2%

B4: E16K20 Gluc-NH2 Lac (peptide)
peptide: HSQGTFTSDYSKYLDERRAKDFVQWLMNT-NH2
modifications: lactam 16-20; N-terminus assumed
SMILES: CSCC[C@H](NC(=O)[C@H](CC(C)C)NC(=O)[C@H](Cc1c[nH]c2ccccc12)NC(=O)[C@H](CCC(N)=O)NC(=O)[C@@H](NC(=O)[C@H](Cc1ccccc1)NC(=O)[C@H](CC(=O)O)NC(=O)[C@@H]1CCCCNC(=O)CC[C@H](NC(=O)[C@H](CC(=O)O)NC(=O)[C@H](CC(C)C)NC(=O)[C@H](Cc2ccc(O)cc2)NC(=O)[C@H](CCCCN)NC(=O)[C@H](CO)NC(=O)[C@H](Cc2ccc(O)cc2)NC(=O)[C@H](CC(=O)O)NC(=O)[C@H](CO)NC(=O)[C@@H](NC(=O)[C@H](Cc2ccccc2)NC(=O)[C@@H](NC(=O)CNC(=O)[C@H](CCC(N)=O)NC(=O)[C@H](CO)NC(=O)[C@@H](N)Cc2c[nH]cn2)[C@@H](C)O)[C@@H](C)O)C(=O)N[C@@H](CCCNC(=N)N)C(=O)N[C@@H](CCCNC(=N)N)C(=O)N[C@@H](C)C(=O)N1)C(C)C)C(=O)N[C@@H](CC(N)=O)C(=O)N[C@H](C(N)=O)[C@@H](C)O
Glucagon receptor [12]
  Percent Potency Relative to Native Ligand: 181%
GLP-1 receptor [13]
  Percent Potency Relative to Native Ligand: 63%

B5: Peptide 900 (peptide)
peptide: H[Aib]QGTFTSDYSKYLD[Aib]RRAQDFVQWLMNTGPSSGAPPPSK([γGlu-γGlu-Palmitoyl])-NH2
modifications: N-terminus assumed
SMILES: CCCCCCCCCCCCCCCC(=O)N[C@@H](CCC(=O)N[C@@H](CCC(=O)NCCCC[C@H](NC(=O)[C@H](CO)NC(=O)[C@@H]1CCCN1C(=O)[C@@H]1CCCN1C(=O)[C@@H]1CCCN1C(=O)[C@H](C)NC(=O)CNC(=O)[C@H](CO)NC(=O)[C@H](CO)NC(=O)[C@@H]1CCCN1C(=O)CNC(=O)[C@@H](NC(=O)[C@H](CC(N)=O)NC(=O)[C@H](CCSC)NC(=O)[C@H](CC(C)C)NC(=O)[C@H](Cc1c[nH]c2ccccc12)NC(=O)[C@H](CCC(N)=O)NC(=O)[C@@H](NC(=O)[C@H](Cc1ccccc1)NC(=O)[C@H](CC(=O)O)NC(=O)[C@H](CCC(N)=O)NC(=O)[C@H](C)NC(=O)[C@H](CCCNC(=N)N)NC(=O)[C@H](CCCNC(=N)N)NC(=O)C(C)(C)NC(=O)[C@H](CC(=O)O)NC(=O)[C@H](CC(C)C)NC(=O)[C@H](Cc1ccc(O)cc1)NC(=O)[C@H](CCCCN)NC(=O)[C@H](CO)NC(=O)[C@H](Cc1ccc(O)cc1)NC(=O)[C@H](CC(=O)O)NC(=O)[C@H](CO)NC(=O)[C@@H](NC(=O)[C@H](Cc1ccccc1)NC(=O)[C@@H](NC(=O)CNC(=O)[C@H](CCC(N)=O)NC(=O)C(C)(C)NC(=O)[C@@H](N)Cc1c[nH]cn1)[C@@H](C)O)[C@@H](C)O)C(C)C)[C@@H](C)O)C(N)=O)C(=O)O)C(=O)O
Glucagon receptor [4]
  % Relative activity: 560%
GLP-1 receptor [5]
  % Relative activity: 383%
GIP receptor [6]
  % Relative activity: 2.89%
